According to PMC11602160:

What was measured:
[1] = molecular target: N_(IDR1-core), N variant with IDR1, RBD and DD in which the 67-residue linker is replaced by a 12-residue GSA-linker (SARS-CoV-2)
[2] = molecular target: N_(IDR1-core), N variant with IDR1, RBD and DD in which the 67-residue linker is replaced by a 12-residue GSA-linker (SARS-CoV-2); assay: ITC; iTC200, 10°C; […]; 20 mM Tris-HCl pH 8.0, 150 mM NaCl, 5% glycerol; […]

Substance | stoichiometry N [1] | Kd [2] [nM]
N_(IDR1-core), N variant with IDR1, RBD and DD in which the 67-residue linker is replaced by a 12-residue GSA-linker (domain or fragment) | 2 | –
UPF2S, UPF2 variant comprising the MIF4G3 and the U1BD domains (from UniProt Q9HAU5 761-1227) (domain or fragment) | – | 2900
